Earlier results on 1 substance are cited in publication PMC6934062.

The target in the series is TDP-43 NTD (Homo sapiens) (UniProt Q13148).

TDP-43 NTD (from UniProt Q13148): the Kd (commonly the constant that tells how readily two partners part at equilibrium) is 70 µM.
